Experimental data taken from patent US20220396632A1 (VERSEAU THERAPEUTICS, published 2022).
Non-standard residues stand in square brackets, D forms with d. No end group written: not given here. *: point of attachment. Biotin = O=C1N[C@H]2[C@H](CS[C@H]2CCCCC(=O)*)N1; sY = N[C@@H](Cc1ccc(OS(=O)(=O)O)cc1)C(=O)O

T1: SulfoTyr C4 peptide (not fully specified; Y4, Y7 and Y9 sulfated (SO3); C-terminal biotin)
T1 construct: also called C4 alpha chain peptide; human sulfotyrosinylated C4 peptide
T1 peptide: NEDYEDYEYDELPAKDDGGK

T2: Sulfotyr fibrinogen γ peptide (not fully specified; Y8 and Y12 sulfated (SO3); C-terminal biotin)
T2 construct: also called Fibrinogen gamma peptide; human sulfotyrosinylated fibrinogen peptide
T2 peptide: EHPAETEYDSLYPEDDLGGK

T3: Recombinant human PSGL-1(ECD)-hFc1 (R&D Systems, Cat. 3345-PS) (human, UniProt Q14242 42-305)
T3 construct: Bought; Gln42-Val295 counted on AAC50061; also called PSGL-1-Fc; PSGL-1-hFc1 chimera; not shown: human IgG1 Fc, Pro100-Lys330
T3 sequence: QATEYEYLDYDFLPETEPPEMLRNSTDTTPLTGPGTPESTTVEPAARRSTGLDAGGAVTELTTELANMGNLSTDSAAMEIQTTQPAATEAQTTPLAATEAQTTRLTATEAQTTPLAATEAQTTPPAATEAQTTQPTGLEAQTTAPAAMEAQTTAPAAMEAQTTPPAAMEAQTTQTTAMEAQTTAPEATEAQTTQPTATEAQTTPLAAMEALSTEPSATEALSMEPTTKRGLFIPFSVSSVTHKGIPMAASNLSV

T4: Human fibrinogen protein (ThermoFisher, RP-43142) (human, UniProt P02671 20-629; P02675 31-491; P02679 27-453, limits assumed, natural sulfotyrosines)
T4 construct: mature; Native dimer with 3 pairs of non-identical chains; also called gamma-fibrinogen; γ fibrinogen protein
T4 sequence (looked up) 1: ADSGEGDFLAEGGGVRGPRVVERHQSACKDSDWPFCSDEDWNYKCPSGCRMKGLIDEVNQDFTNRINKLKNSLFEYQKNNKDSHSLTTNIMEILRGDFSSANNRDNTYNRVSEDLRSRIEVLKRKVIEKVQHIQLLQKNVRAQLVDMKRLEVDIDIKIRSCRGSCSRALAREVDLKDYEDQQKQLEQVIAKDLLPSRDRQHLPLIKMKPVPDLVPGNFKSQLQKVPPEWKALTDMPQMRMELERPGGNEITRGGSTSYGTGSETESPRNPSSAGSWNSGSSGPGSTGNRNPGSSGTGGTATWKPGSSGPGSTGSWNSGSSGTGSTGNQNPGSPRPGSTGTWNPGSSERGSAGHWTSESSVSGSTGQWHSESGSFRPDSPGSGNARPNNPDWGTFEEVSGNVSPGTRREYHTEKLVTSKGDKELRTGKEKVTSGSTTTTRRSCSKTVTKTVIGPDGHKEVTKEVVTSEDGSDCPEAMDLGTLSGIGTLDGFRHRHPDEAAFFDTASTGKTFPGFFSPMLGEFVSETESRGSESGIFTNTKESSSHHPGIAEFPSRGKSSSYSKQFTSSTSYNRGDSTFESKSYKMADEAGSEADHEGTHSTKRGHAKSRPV
T4 sequence (looked up) 2: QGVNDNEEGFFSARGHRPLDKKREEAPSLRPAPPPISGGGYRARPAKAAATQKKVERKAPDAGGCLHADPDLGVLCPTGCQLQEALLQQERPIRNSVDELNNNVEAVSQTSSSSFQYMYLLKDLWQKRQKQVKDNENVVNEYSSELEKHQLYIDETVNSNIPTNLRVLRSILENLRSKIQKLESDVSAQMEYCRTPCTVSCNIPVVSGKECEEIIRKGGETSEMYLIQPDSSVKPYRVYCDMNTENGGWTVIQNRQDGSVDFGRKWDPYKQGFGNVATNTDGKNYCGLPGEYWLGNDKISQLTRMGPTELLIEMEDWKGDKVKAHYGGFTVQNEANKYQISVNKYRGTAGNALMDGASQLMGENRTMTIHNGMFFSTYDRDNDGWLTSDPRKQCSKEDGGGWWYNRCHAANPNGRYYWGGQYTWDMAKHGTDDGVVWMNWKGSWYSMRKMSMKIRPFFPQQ
T4 sequence (looked up) 3: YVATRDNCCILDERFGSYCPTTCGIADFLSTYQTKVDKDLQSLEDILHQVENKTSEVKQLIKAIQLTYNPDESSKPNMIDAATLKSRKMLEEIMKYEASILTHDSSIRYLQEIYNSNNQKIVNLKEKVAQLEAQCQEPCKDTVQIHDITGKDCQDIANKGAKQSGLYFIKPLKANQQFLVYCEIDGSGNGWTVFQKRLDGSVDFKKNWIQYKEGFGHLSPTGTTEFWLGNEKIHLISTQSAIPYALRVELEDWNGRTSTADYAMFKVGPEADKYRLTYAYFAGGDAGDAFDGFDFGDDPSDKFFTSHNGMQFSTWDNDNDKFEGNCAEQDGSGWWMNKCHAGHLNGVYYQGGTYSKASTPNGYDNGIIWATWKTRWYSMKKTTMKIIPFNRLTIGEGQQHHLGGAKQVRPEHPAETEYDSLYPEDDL

T5: SulfoCCK biotin peptide (human)
T5 construct: also called sulfotyrosine CCK peptide
T5 peptide: SHRISDRD[sY]MGWMDFGGK(Biotin)

T6: Sulfotyrosine CCR2b biotin peptide (human)
T6 construct: also called CCR2b peptide
T6 peptide: TTFFD[sY]D[sY]GAPSHGGK(Biotin)

T7: Sulfotyrosine D6 biotin peptide (human)
T7 construct: also called D6 peptide
T7 peptide: ENSSFY[sY][sY]D[sY]LDEVAFGGK(Biotin)


Columns and labels:
SulfoTyr C4 peptide = biological target: T1, SulfoTyr C4 peptide; assay: ELISA, 50 nM mAb
Protocol: (§1) Recombinant PSGL-1-hFc1 chimera protein consisting of PSGL-1's extracellular domain (ECD) served as a positive control. […] Primary antibody was added (25 ul per well) in duplicate at 50 nM in assay buffer (blocking buffer containing 0.05% Tween®20) into test and control (just blocked) wells and the plate incubated for 45 min at 37° C.

[1] = biological target: T2, Sulfotyr fibrinogen γ peptide; assay: ELISA, 50 nM mAb
Protocol: as §1

[2] = biological target: T3, Recombinant human PSGL-1(ECD)-hFc1 (R&D …); assay: ELISA, 50 nM mAb
Protocol: as §1

[3] = biological target: T8, Human complement C4 protein (Millipore Sigma, Cat. 204886) (human, UniProt P0C0L4 20-675; P0C0L4 680-1446; P0C0L4 1454-1744, limits assumed, natural sulfotyrosines); assay: ELISA, 50 nM mAb
T8 construct: mature
Protocol: as §1

[4] = biological target: T4, Human fibrinogen protein (ThermoFisher, …); assay: ELISA, 50 nM mAb
Protocol: as §1

SulfoCCK biotin peptide = biological target: T5, SulfoCCK biotin peptide; assay: ELISA, 50 nM mAb
Protocol: as §1

[5] = biological target: T6, Sulfotyrosine CCR2b biotin peptide; assay: ELISA, 50 nM mAb
Protocol: as §1

[6] = biological target: T7, Sulfotyrosine D6 biotin peptide; assay: ELISA, 50 nM mAb
Protocol: as §1

[7] = biological target: T3, Recombinant human PSGL-1(ECD)-hFc1 (R&D …); assay: blocking ELISA vs VISTA-Fc, pH 6.0

T8 sequence (P0C0L4 20-675 limits assumed, form in doubt, chain 1 of 3): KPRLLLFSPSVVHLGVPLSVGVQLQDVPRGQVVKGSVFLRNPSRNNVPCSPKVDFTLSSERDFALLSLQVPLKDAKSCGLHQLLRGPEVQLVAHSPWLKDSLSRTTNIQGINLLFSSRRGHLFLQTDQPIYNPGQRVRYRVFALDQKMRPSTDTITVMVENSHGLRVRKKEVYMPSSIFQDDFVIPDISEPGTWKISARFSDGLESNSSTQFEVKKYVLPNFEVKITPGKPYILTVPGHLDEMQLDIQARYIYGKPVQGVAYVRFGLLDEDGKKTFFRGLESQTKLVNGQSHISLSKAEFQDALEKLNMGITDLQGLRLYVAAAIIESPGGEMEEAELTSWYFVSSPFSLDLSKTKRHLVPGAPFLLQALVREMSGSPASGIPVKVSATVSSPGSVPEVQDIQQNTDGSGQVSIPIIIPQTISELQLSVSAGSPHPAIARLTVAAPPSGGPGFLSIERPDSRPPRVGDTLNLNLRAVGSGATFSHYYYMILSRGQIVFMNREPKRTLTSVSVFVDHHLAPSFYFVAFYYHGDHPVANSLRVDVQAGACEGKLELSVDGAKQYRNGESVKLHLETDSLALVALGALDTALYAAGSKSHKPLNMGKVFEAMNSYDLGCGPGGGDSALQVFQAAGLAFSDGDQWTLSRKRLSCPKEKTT
T8 sequence (P0C0L4 680-1446 limits assumed, form in doubt, chain 2 of 3): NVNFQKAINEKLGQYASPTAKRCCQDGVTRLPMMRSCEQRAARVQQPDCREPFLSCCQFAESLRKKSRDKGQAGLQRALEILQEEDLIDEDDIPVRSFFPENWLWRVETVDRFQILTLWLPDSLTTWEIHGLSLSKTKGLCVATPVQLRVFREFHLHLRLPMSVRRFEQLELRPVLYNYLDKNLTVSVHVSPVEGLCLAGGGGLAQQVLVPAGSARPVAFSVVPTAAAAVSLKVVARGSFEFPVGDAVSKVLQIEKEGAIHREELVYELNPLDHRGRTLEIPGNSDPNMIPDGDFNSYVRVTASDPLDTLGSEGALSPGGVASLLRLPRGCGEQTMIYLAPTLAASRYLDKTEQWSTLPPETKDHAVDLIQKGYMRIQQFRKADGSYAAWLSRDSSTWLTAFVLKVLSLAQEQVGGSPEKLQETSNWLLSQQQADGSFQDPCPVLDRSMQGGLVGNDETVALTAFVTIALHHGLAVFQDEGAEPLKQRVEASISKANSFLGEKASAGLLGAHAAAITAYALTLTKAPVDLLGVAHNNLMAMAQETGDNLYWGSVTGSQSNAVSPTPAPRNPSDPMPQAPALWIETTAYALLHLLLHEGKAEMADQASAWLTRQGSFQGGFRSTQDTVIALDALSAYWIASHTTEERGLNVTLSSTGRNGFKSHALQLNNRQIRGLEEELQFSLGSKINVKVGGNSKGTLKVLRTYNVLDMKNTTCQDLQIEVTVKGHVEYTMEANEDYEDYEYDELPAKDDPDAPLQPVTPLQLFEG
T8 sequence (P0C0L4 1454-1744 limits assumed, form in doubt, chain 3 of 3): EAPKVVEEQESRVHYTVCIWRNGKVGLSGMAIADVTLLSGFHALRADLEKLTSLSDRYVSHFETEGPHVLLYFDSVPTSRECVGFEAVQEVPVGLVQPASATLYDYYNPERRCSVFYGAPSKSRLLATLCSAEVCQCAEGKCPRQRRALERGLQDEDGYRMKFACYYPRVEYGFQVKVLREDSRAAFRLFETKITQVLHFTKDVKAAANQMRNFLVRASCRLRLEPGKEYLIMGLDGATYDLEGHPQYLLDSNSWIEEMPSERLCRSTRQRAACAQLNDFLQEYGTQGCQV

Row | binding normalized to PSGL-1 (SulfoTyr C4 peptide) | binding normalized to PSGL-1 [1] | A450nm [2] [A450nm] | binding normalized to PSGL-1 [3] | binding normalized to PSGL-1 [4] | binding result [4] | binding normalized to PSGL-1 (SulfoCCK biotin peptide) | binding normalized to PSGL-1 [5] | binding normalized to PSGL-1 [6] | % max Block [7] [%] | IC50 [7] [nM] | Binder
1 | 0.17 | 0.06 | 2.1 | 0.06 | 0.01 | no binding (tested: 50 nM) | 0.03 | 0.03 | 0.04 | 100 | 8 | 10F01 (antibody, IgG4, V domains shown) VH: EVQLVQSGGGLVQPGGSLRLSCAASGFTFSSYAMSWVRQAPGKGLEWVSALRGGDGGTYHADSVKGRFTISGDSSKNTLYLQMNSLRAEDTAVYYCARRMVGAAYAFDIWGQGTMVTVSS VL: LPVLTQPHSVSESPGKTVTISCTRSSGSIADNFVQWYRQRPGSAPTTVIYEGDQRPSGVPGRFSGSIDSSSNSASLTISGLQTDDEADYYCQSFDSYNRRTHVVFGGGTKLTVL
2 | 0.71 | 0.49 | 2.25 | 0.53 | 0.06 |  | 0.08 | 0.16 | 0.28 | 100 | 8 | 03D07 (antibody, IgG4, V domains shown) VH: EVKLLESGGGLVQPGGSLRLSCAASGFTFSSYALSWVRQAPGKGLEWVSAISGSGGNTYYADSVKGRFTISRDNSKNTLYLQMNSLRAEDTAVYYCAKVVGATNYWGQGTLVTVSS VL: DIVMTQTPLSLPVTLGQPASISCRSSQSLVYSDGHTYLSWFHQRPGQSPRRLIYKVSIRDSGVPDRFSGSGSGTDFTLKISRVEAEDVGVYYCMQRLQIPLTFGGGTKVEIK
